The data set concerns the molecule itself. The experiment in a line: small angle X-ray scattering.

As usually defined, the stoichiometry N is a count of units in the complex or per binding partner.

B1: Crotoxin B (enzyme)
chain: HLLQFNKMIKFETRKNAVPFYAFYGCYCGWGGQGRPKDATDRCCFVHDCCYGKLAKCNTKWDIYRYSLKSGYITCGKGTWCEEQICECDRVAAECLRRSLSTYKNGYMFYPDSRCRGPSETC
B1: the “stoichiometry N” value amounted to 4.

Values taken from PMC5335569, “Biophysical studies suggest a new structural arrangement of crotoxin and provide insights into its toxic mechanism” (Scientific Reports, 2017).
